What was measured:
[1] = substrate: C[C@H](O)[C@@H](O)[C@@H](O)[C@H](O)C(=O)O; test: coupled enzyme dehydration assay; assay type: biochemical, Homo sapiens
purified protein [2] = substrate: O=C(O)[C@H](O)[C@H](O)[C@H](O)CO; test: purified protein
purified protein [3] = substrate: O=C(O)[C@H](O)C(O)[C@@H](O)C(=O)O; test: purified protein
purified protein [4] = substrate: O=C(O)[C@@H](O)[C@H](O)[C@H](O)[C@@H](O)CO; test: purified protein
purified protein [5] = substrate: O=C(O)[C@@H](O)[C@H](O)[C@H](O)CO; test: purified protein

B1: rTSγ (HsrTSγ) (Homo sapiens) (protein)
chain: MVRGRISRLSVRDVRFPTSLGGHGADAMHTDPDYSAAYVVIETDAEDGIKGCGITFTLGKGTEVVVCAVNALAHHVLNKDLKDIVGDFRGFYRQLTSDGQLRWIGPEKGVVHLATAAVLNAVWDLWAKQEGKPVWKLLVDMDPRMLVSCIDFRYITDVLTEEDALEILQKGQIGKKEREKQMLAQGYPAYTTSCAWLGYSDDTLKQLCAQALKDGWTRFKVKVGADLQDDMRRCQIIRDMIGPEKTLMMDANQRWDVPEAVEWMSKLAKFKPLWIEEPTSPDDILGHATISKALVPLGIGIATGEQCHNRVIFKQLLQAKALQFLQIDSCRLGSVNENLSVLLMAKKFEIPVCPHAGGVGLCELVQHLIIFDYISVSASLENRVCEYVDHLHEHFKYPVMIQRASYMPPKDPGYSTEMKEESVKKHQYPDGEVWKKLLPA
For B1, which kcat [1] is on record?
The kcat was 0.5 ± 0.006 s⁻¹.

What about the kcat/Km [1] of the same protein?
The kcat/Km was 2500 M⁻¹ s⁻¹.

What about the kcat (purified protein [2]) of the same protein?
Its kcat is 0.002 ± 0.001 s⁻¹.

What about the kcat/Km (purified protein [2]) of the same protein?
Its kcat/Km is 5 M⁻¹ s⁻¹.

What about the kcat (purified protein [3]) of the same protein?
Its kcat is 0.3 ± 0.004 s⁻¹.

What about the kcat/Km (purified protein [3]) of the same protein?
The kcat/Km was 75 M⁻¹ s⁻¹.

And the kcat (purified protein [4])?
The kcat was 0.3 ± 0.01 s⁻¹.

And the kcat/Km (purified protein [4])?
The kcat/Km was 100 M⁻¹ s⁻¹.

And the kcat (purified protein [5])?
The kcat was 0.04 ± 0.002 s⁻¹.

And the kcat/Km (purified protein [5])?
The kcat/Km was 20 M⁻¹ s⁻¹.

From paper PMC4010280
